In one test the target is parvin alpha (PARVA) (Homo sapiens (species ; …, UniProt Q9NVD7). Description: ELISA. Background: An ELISA detects its analyte on a solid surface through an enzyme-linked reagent.
In test [1] the target is alpha hemoglobin stabilizing protein (AHSP) (Homo sapiens (species ; …, UniProt Q9NZD4). Description: ELISA.
Test [2] addresses Frizzled class receptor 7 (Fzd7), His-tagged (UniProt O75084). Description: BLI. In general terms: Biolayer interferometry detects binding as a change in optical thickness at a sensor tip.

Chain of parvin alpha (PARVA) (Homo sapiens (Q9NVD7 whole entry): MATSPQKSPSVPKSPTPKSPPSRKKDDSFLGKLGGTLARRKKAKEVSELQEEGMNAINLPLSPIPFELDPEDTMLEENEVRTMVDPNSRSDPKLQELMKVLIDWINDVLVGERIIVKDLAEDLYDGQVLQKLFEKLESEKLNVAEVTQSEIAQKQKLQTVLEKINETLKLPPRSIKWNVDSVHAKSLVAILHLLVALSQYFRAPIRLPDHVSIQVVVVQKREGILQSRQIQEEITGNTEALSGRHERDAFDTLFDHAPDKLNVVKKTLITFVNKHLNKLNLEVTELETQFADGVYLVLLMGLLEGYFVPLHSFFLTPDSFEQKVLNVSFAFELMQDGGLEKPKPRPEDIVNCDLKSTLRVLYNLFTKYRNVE
Chain of alpha hemoglobin stabilizing protein (AHSP) (Homo sapiens (Q9NZD4 whole entry): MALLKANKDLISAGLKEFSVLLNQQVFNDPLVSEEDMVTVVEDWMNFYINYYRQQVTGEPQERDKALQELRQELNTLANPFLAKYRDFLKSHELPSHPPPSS

B1: representative PARVA binder (GaluxDesign de novo designed full-length IgG, cross-platform benchmark) (antibody, V domains shown)
VH: EEQLVESGGGLVQPGGSLRLSCAASGFNIKDYWIHWVRQAPGKGLEWVAWINPQSGWTNYADSVKGRFTISADTSKNTAYLQMNSLRAEDTATYYCAKIGDWGGKGYALDVWGQGTLVTVSS
VL: DIVMTQSPSSLSASVGDRVTITCRASQDISTALAWYQQKPGQAPKLLIYKASSLASGVPSRFSGSGSGTDFTLTISSLQPEDFATYYCQQFRDLSTLTFGQGTKVEIK
Take B1: in the test with parvin alpha (PARVA), the binding result is reported as “binds”.

B2: representative AHSP binder (GaluxDesign de novo designed full-length IgG, cross-platform benchmark) (antibody, V domains shown)
VH: VQLVESGGGLVQPGGSLRLSCAASGFNIKSFWIHWVRQAPGKGLEWVAWIFALTGNTYYADSVKGRFTISADTSKNTAYLQMNSLRAEDTAVYYCAKASGVSIPLWFDVWGQGTLVTVSS
VL: DIQMTQSPSSLSASVGDKVTITCKASQDISNYLAWYQQKPGKAPKLLIYAASNRKYGVPSRFSGSGSGTDFTLTISSLQPEDFATYYCQQYYSTPLTFGQGTKVEIK
Regarding B2, the binding result in test [1] is reported as “binds”.

B3: F7.B (reference anti-Fzd7 antibody, PDB entry 6O3A) (antibody, V domains shown)
VH: EVQLVESGGGLVQPGGSLRLSCAASGFNFSSSSIHWVRQAPGKGLEWVAYIYPSYDYTYYADSVKGRFTISADTSKNTAYLQMNSLRAEDTAVYYCARGYFYTWGGMDYWGQGTLVTVSS
VL: DIQMTQSPSSLSASVGDRVTITCRASQSVSSAVAWYQQKPGKAPKLLIYSASSLYSGVPSRFSGSRSGTDFTLTISSLQPEDFATYYCQQYYSLFTFGQGTKVEIK
With B3, the binding result in test [2] is recorded as “binds”.

(Values after publication doi:10.1101/2025.11.21.689414 (bioRxiv, 2025).)
